In patent US20260234276A1 (DOMAIN THERAPEUTICS, published 2026):

B1: 3-75 (Fab, V domains shown)
VH: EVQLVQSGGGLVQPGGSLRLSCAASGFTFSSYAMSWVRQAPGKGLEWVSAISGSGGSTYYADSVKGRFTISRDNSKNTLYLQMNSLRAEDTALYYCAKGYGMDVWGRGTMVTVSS
VL: LPMLTQPPSVSGTPGQRVTISCSGSTSNIGSRPVNWYQQLPGTAPKLLIYRNYQRPSGVPDRFSGSKSGTSASLAISGLRSEDEADYYCAAWDDSLSGWVFGGGTKLTVLG
notes: soluble Fab from phage display library huFabL-4, Flag tag
B2: Ref #4 (antibody, human IgG1, V domains shown)
VH: EVQLVESGGGLVQPGGSLKLSCAASGFTFNTYAMNWVRQASGKGLEWVARIRSKANNYATYYADSVKDRFTISRDDSKNTLYLQMNNLKTEDTAVYYCVRDRSRGEDYAMDYWGQGTLVTVSS
VL: DIVMTQSPLSLPVTPGEPASISCRSSKSLLHSNANTYLYWFLQKPGQSPQLLIYRMSNLASGVPDRFSGSGSGTAFTLKISRVEAEDVGVYYCMQHLEYPFTFGQGTKLEIK
B3: 3-65 (Fab, V domains shown)
VH: QVTLKESGGGVVQPGRSLRLSCAASEFTFRNYAMHWVRQAPGKGLEWVAVISYDGSNKYYADSVKGRFTISRDISKNMVFLQMNSLRADDTAVYYCARGTFLAYWGQGTLVTVSS
VL: EIVLTQSPLSLPVTLGQPASISCRSSQSLVHSDGNTYLSWFQQRPGQSPRRLIYKVSNRDSGVPDRFSGSGSGTDFTLKISRVEAEDVGVYYCMQGIHLPLTFGGGTKLEIKR
notes: as for B1
B4: Ref #3 (antibody, human IgG1, V domains shown)
VH: QVQLVQSGAEVKKPGASVKVSCKASGYTFTSYYMHWVRQAPGQGLEWMGIINPSGGSTSYAQKFQGRVTMTRDTSTSTVYMELSSLRSEDTAVYYCARAVRNRFRFDYWGQGTLVTVSS
VL: QSALTQPASVSGSPGQSITISCTGTSSDVGSYNLVSWYQQHPGKAPKLMIYEVSKRPSGVSNRFSGSKSGNTASLTISGLQAEDEADYYCSSYAGSSTFVVFGGGTKLTVL
B5: 3-66 (Fab, V domains shown)
VH: QVQLVESGGGVVQPGRSLRLSCAASGFPFRTYGMHWVRQAPGKGLEWVSSISSSSSYIYYADSVKGRFTISRDNAKNSLELQMNSLRAEDTAVYYCARTTRGAFDIWGKGTMVTVSS
VL: LSSELTQDPAVSVALGQTVRITCQGDSLRSYYASWYQQKPGQAPLLVIYGRNNRPSGIPDRFSGSSSGNTASLTITGAQAEDEADYYCNSRDSSGVPFGTGTQLTVLS
notes: as for B1
B6: 3-57 (Fab, V domains shown)
VH: QMQLVQSGAEVKKPGASVKVSCKASGYTFTSYYMHWVRQAPGQGLEWMGIINPSGGSTSYAQKFQGRVTMTRDTSTSTVYMELSSLRSEDTAVYYCARAGVRGVFGMDVWGKGTLVTVSS
VL: QSALTQPASVSGSPGQSITISCTGTSSDLGAYNYVSWYQQHPGKAPRLMIYDVSKRPSGVPDRFSGSKSDNTASLTISGLQAEDEADYYCSSYTSSSTLVFGGGTKVTVLS
notes: as for B1
B7: 3-55 (Fab, V domains shown)
VH: QVQLQQSGPGLVKPSQTLSLTCAISGDSVSSSTAAWNWIRLSPSRGLEWLGRTYYRSKWYNDYAVSVKSRINISPDTSKNQFSLQLNSVTPEDTGVYYCARGYSRSMDVWGKGTLVTVSS
VL: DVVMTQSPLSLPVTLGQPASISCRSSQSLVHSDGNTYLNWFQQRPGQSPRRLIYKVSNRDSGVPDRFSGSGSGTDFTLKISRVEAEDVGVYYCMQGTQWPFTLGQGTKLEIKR
notes: as for B1
B8: 3-61 (Fab, V domains shown)
VH: QVQLVESGAEVKKPGASVKVSCKASGYTFTSYYMHWVRQAPGQGLEWMGIINPSGGGTKYAQSLQGRVTMTRDTSTSTVYMELNSLTSEDTAVYYCARGGTPSGLDYWGKGTLVTVSS
VL: DIQMTQSPSSLSASVGDRVTITCRASQGISNYLAWYQQKPGKVPKLLIYAASTLQSGVPSRFSGSGSGTDFTLTISSLQPEDVATYYCQKYNSAPLTFGGGTKVEIKR
notes: as for B1
B9: 3-73 (Fab, V domains shown)
VH: QVQLQQSGPGLVKPSQTLSLTCAISGDSVSSSTAAWNWIRQSPSRGLEWLGRTYYRSKWYNDYAVSVKSRITINPDTSKNQFSLQLNSVTPEDTAVYYCARAEAGGRFDYWGQGTLVTVSS
VL: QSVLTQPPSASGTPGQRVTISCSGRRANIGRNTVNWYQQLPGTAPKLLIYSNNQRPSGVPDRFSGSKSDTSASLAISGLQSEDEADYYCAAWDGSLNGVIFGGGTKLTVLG
notes: as for B1
B10: 3-62 (Fab, V domains shown)
VH: QVQLQQSGPGLVKPSQTLSLTCAISGDSVSNNSAAWNWIRQSPSRGLEWLGRTYYRSKWYTDYAVSVKSRITINPDTSKNQFSLQLNSVTPEDTAVYYCARASGYSSGQVEYWGKGTLVTVSS
VL: QSVLTQPPSVSAAPGQKVTISCSGSSSNIGNNYISWYQQVPGTAPKLLIYGNNKRPSGIPARFSGSKSGTSATLDITGLQIGDEADYYCGTWESSLRAVVFGGGTKLTVLG
notes: as for B1
B11: 3-54 (Fab, V domains shown)
VH: QVQLVQSGAEVKKPGASVKVSCKASGYTFSGYYIHWVRQAPGQGLEWMGWINPNSGGTNYAQNFQGRVTMTRDTSISTAYMELSRLRSDDTAMYYCARGNGAMDVWGRGTLVTVSS
VL: DVVMTQSPLSLPVTSGKPASISCRSSQSLLHSNGYNYLDWYLQKPGQSPQLLIYLGSNRASGVPDRFSGSGSGTDFTLKISRVEAEDVGVYYCMQGTYWPRTFGQGTKVEIKR
notes: as for B1
B12: 3-60 (Fab, V domains shown)
VH: QVQLVQSGGGVVQPGRSLRLSCAASGFTFSSYAMHWVRQAPGKGLEWVAVISYDGSNKYYADSVKGRFTISRDNAKNSLYLQMNSLRAEDTAVYYCAREQAARPTLGAFDIWGKGTTVTVSS
VL: DVVMTQSPLSLPVTPGEPASISCRSSQSLLHSNGNNYLAWYLQKPGQSPQLLMYLGSNRASGVPDRFSGSGSGTDFTLKISRVEAEDVGVYYCMQGIHLPLTFGGGTKVEIKR
notes: as for B1
B13: 3-64 (Fab, V domains shown)
VH: QLQLQESGGGLVQPGGSLRLSCAASGFTFSSYAMSWVRQAPGKGLEWVSAISGSGGSTYYADSVKGRFTISRDNSKNTLYLQMNSLRAEDTAVYYCASGHSSHAFEIWGQGTTVTVSS
VL: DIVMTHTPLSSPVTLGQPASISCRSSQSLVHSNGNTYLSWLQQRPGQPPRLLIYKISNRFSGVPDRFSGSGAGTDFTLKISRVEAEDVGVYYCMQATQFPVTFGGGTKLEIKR
notes: as for B1
B14: 3-63 (Fab, V domains shown)
VH: QVQLQESGGGVVQPGRSLRLSCAASGFTFSSYGMHWVRQAPGKGLEWVAVISYDGSNKYYADSVKGRFTISRDNSKNTLYLQMNSLRAEDTAVYYCARDRPGGMDVWGKGTMVTVSS
VL: DVVMTQSPLSLPVTLGQPASISCRSSQSLVHSNGNTYLTWFQQRPGQSPRRLIYKVSNRDSGVPDRFSGSGSGTDFTLKISRVEAEDVGVYYCMQGTRWYTFGQGTKLEIKR
notes: as for B1
B15: 3-74 (Fab, V domains shown)
VH: EVQLVQSGGGVVQPGRSLRLSCAASGFTFSNYGMHWVRQAPGKGLEWVAIISDDGSNRYYGDSVKGRFTISRDNSKNTLYLQMNSLRAEDTAVYYCAKSLTTSYYYGMDVWGKGTLVTVSS
VL: QSALTQPPSASGSPGQSVTISCTGTSSDIGGYIYVSWYQQHPGKAPKLIIYEVHKRPSGVSNRFSASKSANTASLTISGLQAEDEADYYCSSYSSSRTVLFGGGTKLTVLG
notes: as for B1
B16: 3-56 (Fab, V domains shown)
VH: EVQLVQSGGGVVQPGRSLRLSCAASGFTFSTYGMHWVRQAPGKGLEWVAVISYDGSKKYYADSVKGRFTISRDNSRNTVYLQMDSLRSEDTAVYYCAKDLSWPVRRLDVWGKGTMVTVSS
VL: EIVLTQSPLSLPVTLGQPASISCRSSQSLVYSTGNTYLNWFHQRPGQSPRRLIYQVSNRDSGVPDRFSGSGSGTDFTLKISRVEADDVGVYYCMQGTHWPPTFGQGTKVEIKR
notes: as for B1
B17: 3-59 (Fab, V domains shown)
VH: GVQLVQSGGGLVQPGGSLRLSCAASGFTFSSYSMNWVRQAPGKGLEWVAVISYDESNKYYADSVKGRFTISRDNSKNTLYLQMNSLRAEDTAVYYCAPGGSYHDYWGKGTLVTVSS
VL: EIVLTQSPLSLPVTLGQPASISCRSSQSLAHSNGNTYLNWFQQRPGQSPRRLIYKVSNRDSGVPDRFSGSGSGTDFTLKISRVEADDVGVYYCMQGSHWPPTFGQGTKVEIKR
notes: as for B1

How the values were obtained:
[1] = biological target: T1, biotinylated CCR8 peptide (human, N-terminal biotin); assay: ELISA, soluble Fab on biotinylated CCR8 peptide captured on streptavidin
T1 construct: first 34 residues of human CCR8 plus a C-terminal K; also called biotinylated target peptide
Experimental: (§1) The wells of a microtiter plate were coated with 200 ng streptavidin protein in 100 μL Coating Buffer (0.1 M NaHCO₃, pH 8.6), and then incubated overnight at 4° C. For negative control, the wells were coated with PBS to determine non-specific binding. After shaking out the coating solution, the wells were washed three times with washing buffer (0.1% Tween 20-PBS). To prevent non-specific binding, 200 μL Blocking Buffer (3% BSA-PBS) was adding and incubated for 2 h at 37° C. After shaking out the blocking buffer, the wells were incubated with 50 ng biotinylated target peptide (SEQ ID NO: 420; see Example 10) in 100 μL Blocking Buffer for 1 h at 37° C. The control well was incubated with only 100 μL Blocking Buffer for 1 h at 37° C. After shaking out the biotinylated target peptide or buffer solution, the wells were washed 3 times with the washing buffer (0.1% Tween 20-PBS). Then 100 μL supernatant containing soluble Fab were added and incubated for 2 h at 37° C. Following three washes with washing buffer (0.1% Tween 20-PBS) for 3 times, 100 μL/well HRP conjugate of mouse anti-Flag tag mAb (Sigma A8592, 1:5000) diluted in Blocking Buffer were added and incubated for 1 h at 37° C. After washings, 3,3′,5,5′-tetramethylbenzidine (TMB) (Sigma) were added for 5 to 30 min at room temperature. The reaction was stopped by adding 50 μL/well of 1 M H₂SO₄.

[2] = biological target: T2, streptavidin (UniProt P22629 37-163, limits assumed); assay: ELISA, soluble Fab on streptavidin-coated control well without peptide
T2 construct: control well without peptide
Experimental: as §1

[3] = biological target: CCR8 SNAP-tag (human, UniProt P51685 1-355, SNAP-tag labelled with Lumi4-Terbium); assay: cell-based or functional assay

T2 sequence (P22629 37-163 limits assumed): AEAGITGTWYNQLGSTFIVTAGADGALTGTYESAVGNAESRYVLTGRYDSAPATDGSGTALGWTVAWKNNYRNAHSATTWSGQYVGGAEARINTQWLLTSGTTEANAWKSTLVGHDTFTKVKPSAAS

Row | Binder | Optical Density [1] [OD450] | Optical Density [2] [OD450] | % of internalization at 1 µg/ml mAb (HTRF) [3] [%] | % of internalization at 10 µg/ml mAb (HTRF) [3] [%]
1 | B1 | 3.67 | 0.08 | – | –
2 | B2 | – | – | 95 | 103
3 | B3 | 3.29 | 0.07 | – | –
4 | B4 | – | – | 100 | 90
5 | B5 | 2.56 | 0.1 | – | –
6 | B6 | 2.39 | 0.1 | – | –
7 | B7 | 2.34 | 0.07 | – | –
8 | B8 | 2.43 | 0.06 | – | –
9 | B9 | 2.27 | 0.07 | – | –
10 | B10 | 3.6 | 0.07 | – | –
11 | B11 | 2.76 | 0.08 | – | –
12 | B12 | 3.66 | 0.06 | – | –
13 | B13 | 3.64 | 0.07 | – | –
14 | B14 | 3.66 | 0.09 | – | –
15 | B15 | 2.81 | 0.09 | – | –
16 | B16 | 2.35 | 0.08 | – | –
17 | B17 | 1.4 | 0.06 | – | –
